Tests used:
FYN = FYN (UniProt P06241 2-537, limits assumed); experiment: YAP1 immunoprecipitation from colon cancer cell lysate (SW480), immunoblot
Experimental: (§1) The indicated colon cancer cell lines were infected with shRNAs targeting YES1 and proliferation (A) or anchorage independent growth (B) was assessed. The results were normalized to cells infected with a control shRNA targeting LacZ. (C) Subcutaneous HCT116 tumors expressing a doxycycline inducible YES1 shRNA were implanted into the cecum of nude mice and after 48 h were treated or not with doxycycline. Tumors were extracted three weeks post doxycycline treatment. (D) YES1 protein levels of tumors in (C). (E) YAP1 was immunoprecipitated from SW480 lystaes and following immunobloting the membrane was stained with the indicated antibodies. […] Following V5 IP the membrane was blotted with a phosphotyrosine antibody. […] (H) Proliferation or anchorage independent growth (I) of Hutu80 cell lines expressing YAP1 Y357F and infected with shRNAs targeting YAP1. (J) YAP1 protein levels of cells in (H) and (I).

[1] = target: SRC (endogenous, colon cancer cell lines) (UniProt P12931 2-536); experiment: as above
Experimental: as §1

FYN, sequence (P06241 2-537 limits assumed): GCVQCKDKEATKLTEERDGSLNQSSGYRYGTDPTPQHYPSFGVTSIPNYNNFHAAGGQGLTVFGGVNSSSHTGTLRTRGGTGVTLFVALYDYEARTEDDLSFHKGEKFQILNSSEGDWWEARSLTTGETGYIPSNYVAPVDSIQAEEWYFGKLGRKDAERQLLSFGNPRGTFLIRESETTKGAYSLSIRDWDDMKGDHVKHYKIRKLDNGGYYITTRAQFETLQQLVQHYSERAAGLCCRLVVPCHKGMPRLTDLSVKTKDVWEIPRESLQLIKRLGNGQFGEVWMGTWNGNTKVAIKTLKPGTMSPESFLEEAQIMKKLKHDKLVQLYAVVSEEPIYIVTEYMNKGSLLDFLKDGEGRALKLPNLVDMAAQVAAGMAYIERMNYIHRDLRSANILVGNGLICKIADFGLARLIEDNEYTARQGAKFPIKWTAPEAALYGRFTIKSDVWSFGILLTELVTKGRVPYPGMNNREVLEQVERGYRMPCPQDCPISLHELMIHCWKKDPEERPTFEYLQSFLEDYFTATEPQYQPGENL

- binding result (FYN): no binding
- binding result [1]: no binding
B1: YAP1 (65 kd Yes-associated protein) (other, UniProt P46937-3 1-454, looked up)
chain: MDPGQQPPPQPAPQGQGQPPSQPPQGQGPPSGPGQPAPAATQAAPQAPPAGHQIVHVRGDSETDLEALFNAVMNPKTANVPQTVPMRLRKLPDSFFKPPEPKSHSRQASTDAGTAGALTPQHVRAHSSPASLQLGAVSPGTLTPTGVVSGPAATPTAQHLRQSSFEIPDDVPLPAGWEMAKTSSGQRYFLNHIDQTTTWQDPRKAMLSQMNVTAPTSPPVQQNMMNSASAMNQRISQSAPVKQPPPLAPQSPQGGVMGGSNSNQQQQMRLQQLQMEKERLRLKQQELLRQVRPQELALRSQLPTLEQDGGTQNPVSSPGMSQELRTMTTNSSDPFLNSGTYHSRDESTDSGLSMSSYSVPRTPDDFLNSVDEMDTGDTINQSTLPSQQNRFPDYLEAIPGTNVDLGTLEGDGMNIEGEELMPSLQEALSSDILNDMESVLAATKLDKESFLTWL
notes: Endogenous protein in the co-immunoprecipitations from colon cancer cell lysates; also called WT YAP1

From patent US20240398804A1 (Dana-Farber, published 2024)
